Test results published in patent publication US11571459B2, “Methods for treating cancer using PS-targeting antibodies with immuno-oncology agents” (ONCXERNA THERAPEUTICS, INC., priority 2017, dated 2023).

Experiments:
β2GPI = target: T1, β2GPI (Homo sapiens, UniProt P02749); test: Antibody binding to β2GPI (domain mapping)
T1 sequence (P02749 20-345): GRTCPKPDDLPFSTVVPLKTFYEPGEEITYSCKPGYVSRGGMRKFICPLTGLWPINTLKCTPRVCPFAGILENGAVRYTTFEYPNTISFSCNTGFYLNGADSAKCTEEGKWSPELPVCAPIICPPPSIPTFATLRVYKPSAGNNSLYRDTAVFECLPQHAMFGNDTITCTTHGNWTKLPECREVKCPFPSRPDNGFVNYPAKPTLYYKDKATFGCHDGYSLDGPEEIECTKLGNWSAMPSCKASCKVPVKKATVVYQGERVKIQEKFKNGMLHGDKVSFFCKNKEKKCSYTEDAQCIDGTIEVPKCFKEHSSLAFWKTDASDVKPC
Source text: In summary, it was shown that the 3G4 antibody binds to β2GPI at domain II and that the lipid binding region of β2GPI domain V is required for co-binding of 3G4 (and ch3G4) and β2GPI to PS exposed on cells. […] Accordingly, antibody and β2GPI co-bind to PS exposed on the outer surfaces of membranes, such as occurs on activated endothelial cells, tumor vascular endothelial cells and tumor cells, as well as on virally infected cells.

[1] = Administration to rats (safety); type: in vivo; conditions: doses above 10 mg/kg
[2] = Further pharmacokinetic studies in over 120 patients with cancer or viral infections; type: in vivo, human
hepatitis C virus (HCV) [3] = test: Phase I single intravenous infusion dose escalation study in chronic HCV; type: in vivo, human; conditions: for Observed Cmax: HCV patients
Protocol: A Phase I, open-label, single center, dose escalation study evaluated a single intravenous infusion of bavituximab in patients chronically infected with HCV (Example III, A).
(§1) Bavituximab was first evaluated in Phase I, open-label, dose escalation studies and Phase Ib, open-label, escalating repeat-dose studies in patients chronically infected with hepatitis C virus (HCV). […] Doses of 0.1, 0.3, 1, 3 and 6 mg/kg were administered in Phase I (30 patients; successive cohorts of 6 patients), and doses of 0.3, 1, 3 and 6 mg/kg were administered in Phase Ib (24 patients; four cohorts of 6 patients).

hepatitis C virus (HCV) [4] = test: Phase Ib escalating repeat-dose study in chronic HCV; type: in vivo, human; conditions: for viral load: Phase Ib
Protocol: as §1

HCV and HIV = test: Phase Ib repeat-dose study in patients co-infected with chronic HCV and HIV; type: in vivo, human
Protocol: The primary objectives were to determine the safety, tolerability, PK profile, viral kinetics, MTD and/or MED. The study involved 16 scheduled visits over approximately 16 weeks. […] Dose escalation proceeded after all patients in the cohort had completed the first 4 weeks of dosing with no thrombotic events classified as serious adverse events (SAEs).
The median baseline HCV viral load was 6.76 log10 and the median baseline for HIV was 3.99 log10. Plasma viral loads of HCV and HIV were measured at specific time points during the study.

[5] = Phase Ib study of bavituximab with gemcitabine, paclitaxel plus carboplatin or docetaxel: PK; type: in vivo, human; conditions: 3 mg/kg weekly with gemcitabine
[6] = tested on: locally advanced or metastatic breast cancer; test: Phase II bavituximab plus paclitaxel and carboplatin in breast cancer; conditions: with paclitaxel and carboplatin
Source text: This Phase II study utilized a Simon 2-stage design. […] The primary objective was to determine the overall response rate (ORR), defined as complete response (CR) plus partial response (PR), CR+PR. Secondary objectives included time to tumor progression, duration of response (DOR or DR), overall survival (OS) and safety.

[7] = tested on: locally advanced or metastatic breast cancer; test: Phase II bavituximab plus docetaxel in breast cancer; type: in vivo, human; conditions: with docetaxel
Source text: This trial was also a Phase II, multicenter trial utilizing a Simon 2-stage design. […] The primary objective was to determine the ORR (CR+PR). Secondary objectives included time to tumor progression, DOR, OS and safety.
All patients received one prior chemotherapy regimen.

[8] = tested on: advanced hepatocellular carcinoma (HCC); test: Phase II bavituximab and sorafenib in HCC; type: in vivo, human
Protocol: A Phase II, single institution study of bavituximab and sorafenib in advanced hepatocellular carcinoma (HCC) was conducted. […] Secondary endpoints included overall survival (OS), disease specific survival, 4 month progression free survival, safety and response rate. The study accrued 38 patients.

[9] = tested on: previously untreated locally advanced or metastatic non-squamous NSCLC; test: Phase II (PPHM 1001) paclitaxel/carboplatin with or without bavituximab; type: in vivo, human; conditions: bavituximab given with paclitaxel/carboplatin
[10] = in vivo
Protocol: Samples were collected from patients in the 0.1 and 0.3 mg/kg dose cohorts before the study, on days 0, 1, 2, 4, 7, 10, 14, and every 7 days from days 21 to 70. Samples were collected from patients in the 1 and 3 mg/kg dose cohorts before the study, on days 0, 1, 2, 4, 7, 14, 21, 22, 23, 25, and every 7 days from days 28 to 56.

[11] = irrespective of the presence of serum; cited from earlier work
HCV (genotype 1) = test: Phase II study of bavituximab with ribavirin in chronic HCV (genotype 1); conditions: for patients with early virological response (EVR): Week 12

bavituximab
β2GPI domain bound (β2GPI): bind to domain II of β2GPI | doses safely administered [1]: up to 100 mg/kg | PK linearity ([2]; doses 0.1 to 6 mg/kg): linear single-dose and multiple-dose PK characteristics | time by which distribution phase is essentially complete ([2]; where observed): ≤ 6 h | Observed Cmax (hepatitis C virus (HCV) [3]; 0.1 mg/kg single infusion): 2500 ng/mL | Observed Cmax (hepatitis C virus (HCV) [3]; 0.3 mg/kg single infusion): 5700 ng/mL | Observed Cmax (hepatitis C virus (HCV) [3]; 1 mg/kg single infusion): 24300 ng/mL | Observed Cmax (hepatitis C virus (HCV) [3]; 3 mg/kg single infusion): 75800 ng/mL | Observed Cmax (hepatitis C virus (HCV) [3]; 6 mg/kg single infusion): 135000 ng/mL | tolerability (hepatitis C virus (HCV) [3]; Phase I and Phase Ib, 0.1 to 6 mg/kg): all dose levels of bavituximab were well tolerated | viral load (hepatitis C virus (HCV) [3]; Phase I, all dose levels): transient reductions in viral load | viral load (hepatitis C virus (HCV) [4]; 3 mg/kg, throughout treatment and follow-up): consistent decreases in HCV | viral load (hepatitis C virus (HCV) [4]; doses of 0.3, 1 and 6 mg/kg): small decreases in viral load | accumulation / time-dependent PK differences (hepatitis C virus (HCV) [4]; all dose levels, day 0 and day 10): no evidence of accumulation of bavituximab or time-dependent PK differences | accumulation / time-dependent PK differences (HCV and HIV; 0.3 to 6 mg/kg once weekly for 8 weeks): did not exhibit time-dependent PK differences or accumulation | maximum reduction in HCV and/or HIV viral load from baseline (HCV and HIV; several patients in each treatment group, all dose levels): ≥ 0.5 log10 | accumulation (Cmax and AUC) [5]: no accumulation of bavituximab following multiple-dose administration | median PFS [6]: 6.9 months | median duration of response (DOR) [6]: 3.7 months | CR ([6]; 46 patients): 10.9% | Grade 3 anemia ([6]; 46 patients): 10.9% | Grade 3 leukopenia ([6]; 46 patients): 23.9% | Grade 3 neutropenia ([6]; 46 patients): 19.6% | Grade 4 neutropenia ([6]; 46 patients): 26.1% | PR ([6]; 46 patients): 63.0% | objective response per RECIST ([6]; 46 patients): 73.9% | median OS ([6]; at study closure): 23.2 months | median DOR [7]: 6.1 months | median PFS [7]: 7.4 months | most common TEAEs of Grade ≥3 [7]: only fatigue, headache, back pain and hypertension were Grade ≥3 | CR ([7]; 46 patients): 10.9% | PR ([7]; 46 patients): 50.0% | objective response ([7]; 46 patients): 60.9% | median OS ([7]; final analysis): approximately 20.7 months | patients with increased infiltration of activated tumor-fighting T-cells (CD8) into the tumor microenvironment ([8]; after one cycle): Three of the six patients | anorexia, all grade ([8]; with sorafenib): 24% | diarrhea, all grade ([8]; with sorafenib): 32% | fatigue, all grade ([8]; with sorafenib): 26% | four month PFS ([8]; with sorafenib): 61% | median OS (mOS) ([8]; with sorafenib): 6.2 months | partial response ([8]; with sorafenib): Two patients achieved partial response | tolerability ([8]; with sorafenib): well tolerated | grade 4 or 5 adverse events ([8]; with sorafenib, 38 patients): no grade 4 or 5 adverse events recorded | mOS ([9]; functional β2GPI less than 200 μg/mL): 14.2 months | mOS ([9]; functional β2GPI ≥200 μg/mL): 17.0 months | accumulation following multiple-dose administration [10]: did not exhibit appreciable accumulation or time-dependent PK differences | tolerability [10]: well tolerated at doses ranging up to 3 mg/kg weekly | binding to neutral phospholipids PC, SM or PE [11]: no detectable binding | patients with early virological response (EVR) (HCV (genotype 1); 0.3 mg/kg weekly with ribavirin): 18% | patients with early virological response (EVR) (HCV (genotype 1); 3 mg/kg weekly with ribavirin): 9% | safety profile / patients reporting AEs (HCV (genotype 1); all with ribavirin): more favorable safety profile | viral reduction (HCV (genotype 1); plus ribavirin, 12 weeks): gradual viral reduction over 12 weeks was seen in some patients
